Experimental data from patent US20230235034A1 (University of Pennsylvania, published 2023).
One block for each binder: values may come before it.

What was measured:
[1] = target: T1, T40 tau monomer (full length tau protein, 2N4R isoform) (human, UniProt P10636 2-758); test: sandwich ELISA, tau antigen captured by K9JA
T1 construct: no sentence says so outright; also called T40 monomer; human T40 tau
Protocol: (§1) Blocking was performed with BlockAce solution (Abd Serotec) at 4° C. overnight. […] Plates were washed with PBST and HRP-conjugated anti-mouse (Jackson Immunoresearch) secondary antibodies were applied for 2 h at 22° C. Plates were washed and tetramethylbenzidine peroxidase substrate (KPL laboratories) was added to wells to provide a colorimetric readout, quenched with 10% phosphoric acid and then absorbance measured at 450 nm (Molecular Devices SpectraMax).
(§2) Towards the goal of generating conformation-selective tau mAbs, mice were inoculated with human AD brain-derived extracts enriched in insoluble tau (AD-tau). Hybridoma clones generated from immunized mice were screened by sandwich ELISA to simultaneously assess binding of antibodies to tau monomer, AD-tau seeded recombinant tau preformed fibrils (AD-P1 PFFs), and AD-tau. […] Clones that bound AD-tau and AD-P1 PFFs with greater apparent affinity than tau monomer were prioritized and subsequently sub-cloned by limiting dilutions to monoclonal populations.

[2] = target: T2, AD-P1 PFFs (AD-tau seeded recombinant tau preformed fibrils) (human, UniProt P10636 2-758); test: sandwich ELISA, tau antigen captured by K9JA
T2 construct: Fibrils made from 36 uM T40 tau (2N4R) and 4 uM AD-tau seeds; also called T40 AD-P1 PFFs
T2 sequence (P10636 other isoform, or with tags, fused parts or gaps limits assumed): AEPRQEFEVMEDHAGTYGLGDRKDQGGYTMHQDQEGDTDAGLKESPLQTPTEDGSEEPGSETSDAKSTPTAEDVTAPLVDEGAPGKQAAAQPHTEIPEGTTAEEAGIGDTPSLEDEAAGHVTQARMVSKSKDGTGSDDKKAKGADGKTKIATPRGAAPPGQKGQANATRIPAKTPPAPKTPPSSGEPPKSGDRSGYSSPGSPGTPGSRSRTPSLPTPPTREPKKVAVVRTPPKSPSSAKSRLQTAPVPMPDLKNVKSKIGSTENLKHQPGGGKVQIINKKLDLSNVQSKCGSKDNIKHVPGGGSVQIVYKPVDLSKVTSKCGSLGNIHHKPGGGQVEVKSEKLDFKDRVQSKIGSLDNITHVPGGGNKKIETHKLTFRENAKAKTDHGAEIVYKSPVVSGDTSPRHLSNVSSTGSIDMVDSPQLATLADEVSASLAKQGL
Protocol: as §1, §2

[3] = target: T3, AD-tau (Alzheimer's brain derived tau) (human, UniProt P10636-8 2-441, limits assumed); test: sandwich ELISA, tau antigen captured by K9JA
T3 construct: Misfolded fibrillar tau from brain extract, not a single defined polypeptide; also called human AD-brain-derived pathological tau; AD tau PHF
T3 sequence (P10636 other isoform, or with tags, fused parts or gaps limits assumed): as above
Protocol: as §1, §2

ΔK18-P fragment of tau = ΔK18-P fragment of tau (Homo sapiens (Human), UniProt P10636 1-758); test: western blot of tau fragments
Sequence of ΔK18-P fragment of tau (P10636 other isoform, or with tags, fused parts or gaps mutant): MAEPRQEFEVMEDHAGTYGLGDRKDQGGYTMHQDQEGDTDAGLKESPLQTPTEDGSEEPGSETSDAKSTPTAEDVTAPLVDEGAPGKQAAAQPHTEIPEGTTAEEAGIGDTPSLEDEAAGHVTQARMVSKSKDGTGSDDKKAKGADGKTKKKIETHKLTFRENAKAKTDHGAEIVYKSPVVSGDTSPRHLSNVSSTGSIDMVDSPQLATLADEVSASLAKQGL
Protocol: (§3) T40 tau monomer or AD-tau were chemically and thermally denatured by 1:10 dilution in 8M guanidine hydrochloride and heating at 100° C. for 15 min, and non-denatured controls were diluted in Tris-buffered saline (TBS) at RT. Denatured or non-denatured tau was then diluted 1:50 in TBS and applied to 0.2 μm nitrocellulose membrane using a vacuum apparatus. For western blots, tau isoforms and fragments were diluted in SDS sample buffer, heated 10 min at 100° C., run on 12.5% SDS-PAGE gels and transferred to 0.2 μm nitrocellulose membrane. […] Infrared dye labeled secondary antibodies (LiCor) were used to detect primary antibody binding, with analysis on a LiCor scanner (LiCor).

K18 fragment of tau = K18 fragment of tau (UniProt P10636-8 244-372); test: western blot of tau fragments
Sequence of K18 fragment of tau (P10636 561-689 limits assumed): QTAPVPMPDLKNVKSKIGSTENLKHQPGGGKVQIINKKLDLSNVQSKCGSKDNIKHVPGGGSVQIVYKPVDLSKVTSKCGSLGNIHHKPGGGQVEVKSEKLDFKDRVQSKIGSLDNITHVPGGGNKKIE
Protocol: as §3

T1 sequence (P10636 other isoform, or with tags, fused parts or gaps limits assumed): as the sequence (P10636 other isoform, or with tags, fused parts or gaps limits assumed) above

- EC50 [1]: 12 nM
- EC50 [2]: 0.46 nM
- EC50 [3]: 0.1 nM
- binding result (ΔK18-P fragment of tau): no binding (tested: 20 µg/mL)
- binding result (K18 fragment of tau): no binding (tested: 20 µg/mL)
B1: DMR7 (antibody, mouse IgG1, V domains shown)
VH: QVQLQQPGAELVRPGASVKLSCKASGYIFTTYWMNWVKQRPGQGLEWIAMIDPSDSETHYNQMFKDKATLTVDTSSSTAYMQLSGLTSEDSAVYYCARGEGYWGQGTTLTVSS
VL: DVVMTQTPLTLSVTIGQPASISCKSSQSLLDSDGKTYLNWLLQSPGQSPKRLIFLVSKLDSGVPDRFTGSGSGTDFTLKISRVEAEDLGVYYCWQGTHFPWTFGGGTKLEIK
notes: Mouse hybridoma monoclonal antibody purified from culture medium; also called tau mAb DMR7; MHC2825

- EC50 [1]: 4.13 nM
- EC50 [2]: 2.38 nM
- EC50 [3]: 0.17 nM
- binding result (ΔK18-P fragment of tau): no binding (tested: 20 µg/mL)
- binding result (K18 fragment of tau): no binding (tested: 20 µg/mL)
B2: SKT82 (antibody, mouse IgG2a, V domains shown)
VH: EVQLQQSGAELVRSGASVKLSCTASGFNIKDYYMHWVKQRPEQGLEWIGWFDPENGDAEYAPKFQDKATMTADTSSNAAYLQLSSLTSEDTAVYYCNGYLYWGQGTLVTVSS
VL: DVLMTQTPLSLPVSLGDQASISCRSSQNIVHNNGNTYLEWYLQKPGQSPKLLIYKVSNRFSGVPDRFSGSGSGTDFTLKISRVEAEDLGIYYCFQGSHVPHTFGGGTRLEIK
notes: Mouse hybridoma monoclonal antibody purified from culture medium; also called tau mAb SKT82
